Assays:
[1] = target: BSA (Bovine Serum Albumin) (UniProt P02769)
[2] = tested on: T1, PKC (Protein Kinase C) matrix AAKIQASFRGHMARKK
T1 sequence: AAKIQASFRGHMARKK

[3] = tested on: recombinant Mep45-kinase matrix fusion protein (PKC matrix)
[4] = tested on: T2, cdc2-PK (cdc2 Protein Kinase) matrix PKTPKKAKKL
T2 sequence: PKTPKKAKKL

[5] = tested on: recombinant Mep45-kinase matrix fusion protein (cdc2-PK matrix)

Chain of BSA (Bovine Serum Albumin) (P02769 25-607): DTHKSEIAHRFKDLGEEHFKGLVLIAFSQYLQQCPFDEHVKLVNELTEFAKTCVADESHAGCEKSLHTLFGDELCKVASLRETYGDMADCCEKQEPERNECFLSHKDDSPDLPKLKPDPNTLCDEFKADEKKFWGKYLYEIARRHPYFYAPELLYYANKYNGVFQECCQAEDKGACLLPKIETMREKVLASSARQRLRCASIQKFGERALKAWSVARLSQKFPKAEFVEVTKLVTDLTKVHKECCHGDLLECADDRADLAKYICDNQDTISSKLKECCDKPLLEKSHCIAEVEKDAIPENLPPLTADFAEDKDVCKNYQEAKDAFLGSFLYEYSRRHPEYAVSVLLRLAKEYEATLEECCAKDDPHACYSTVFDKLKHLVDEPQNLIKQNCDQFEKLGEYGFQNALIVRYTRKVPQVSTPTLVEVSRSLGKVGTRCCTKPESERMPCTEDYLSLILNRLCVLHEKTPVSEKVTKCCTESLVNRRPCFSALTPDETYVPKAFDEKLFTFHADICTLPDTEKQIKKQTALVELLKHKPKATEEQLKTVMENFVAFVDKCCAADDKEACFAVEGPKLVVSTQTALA

Row | Substance | phosphorylation on chip with [gamma-32P]ATP, X-ray film or X-ray fluorescence spectrometer [1] | phosphorylation on chip with [gamma-32P]ATP, X-ray film or X-ray fluorescence spectrometer [2] | phosphorylation on chip with [gamma-32P]ATP, X-ray film or X-ray fluorescence spectrometer [3] | phosphorylation on chip with [gamma-32P]ATP, X-ray film or X-ray fluorescence spectrometer [4] | phosphorylation on chip with [gamma-32P]ATP, X-ray film or X-ray fluorescence spectrometer [5]
1 | PKC (Protein Kinase C) | no signal was detected on the spot of BSA (negative control) | clear signal was detected on the spot of AAKIQASFRGHMARKK matrix (FIG. 5A) | clear signal was detected on the spot of ... Mep45 fusion matrix (FIG. 5B) |  | 
2 | cdc2 protein kinase | no signal was detected on the spot of BSA (negative control) |  |  | clear signal was detected on the spot of PKTPKKAKKL matrix (FIG. 4A) | clear signal was detected on the spot of ... Mep45 fusion matrix (FIG. 4B)
